Experimental findings from patent US12655441B2, “PPO polypeptides tolerant to PPO-inhibiting herbicides and use thereof” (QINGDAO KINGAGROOT CHEMICAL COMPOUND CO., LTD., priority 2021, dated 2026) are described below.

For assay [1], the system named is PPO-deficient Escherichia coli (ΔhemG). The assay can be described thus: PPO-deficient E. coli (ΔhemG) transformed by corn ZmPPO1 mutant genes, growth on LB medium containing compound A. The settings on record: compound A 5 μM. It counts as cell-based. How it is done:
To verify whether the mutation of the PPO1-conserved protein motif LLLNYI in other plants could also confer resistance to herbicides, the mutation combination of leucine residues at the third position and tyrosine residues at the fifth position in the protein motif LLLNYI was carried out by using the same method as described in the above examples and screened by using of the LB medium containing herbicidal compound A, and the growth inhibition was observed.

The test system of the next assay is Arabidopsis thaliana. The assay can be described thus: Herbicide resistance test of Arabidopsis thaliana seeds overexpressing crop PPO1 WT or mutant on MS medium. In kind it is in vivo. The settings on record: overexpressed in Arabidopsis thaliana seed; for tolerance to compound A compared with wild-type Arabidopsis thaliana / tolerance to compound A compared with the overexpressed wild-type PPO1: different concentrations of compound A; for tolerance to flumioxazin compared with wild-type Arabidopsis thaliana / tolerance to flumioxazin compared with the overexpressed wild-type PPO1: different concentrations of flumioxazin; for tolerance to saflufenacil compared with wild-type Arabidopsis thaliana / tolerance to saflufenacil compared with the overexpressed wild-type PPO1: different concentrations of saflufenacil. How it is done: 1) Sowing: plump and vernalized wild-type Arabidopsis thaliana seeds were selected, treated with 75% alcohol for 1 minute, disinfected with 10% NaClO for 6 minutes, and washed with sterile water for 5 to 6 times. After the sterilization was completed, the seeds were placed on a MS medium plate for one week, then transplanted to sterilized nutrient soil (nutrient soil:vermiculite=1:1) and cultured in a greenhouse at (25±2) ° C. with a photoperiod of 16 h/8 h (light/dark).
4) Infestation of Arabidopsis thaliana inflorescences: the uninfected Arabidopsis thaliana with good growth state and lush inflorescences were selected for infection and their fruit pods were cut off from the plants by scissors prior to transformation. The Arabidopsis thaliana inflorescences were dipped in the prepared infection solution for 0.5 to 1 minute. Then the infected Arabidopsis thaliana seedlings were placed in dark and humid conditions for 24 hours. After one week, the infection was repeated.
After the transformation of dipped Arabidopsis thaliana inflorescences, Arabidopsis thaliana TO-generation seeds were collected and sowed on a resistant MS plate containing 30 mg/L hygromycin to screen positive plants.
The obtained overexpressed mutant and wild-type Arabidopsis thaliana seeds of different crops were tested for resistance on a MS medium (petri dish) containing different concentrations of PPO-inhibiting herbicidal compounds, as shown in FIG. 12-23.

B1: L424T/Y426V (protein)
chain: MVAATATATAMATAASPLLNGTRIPARLRHRGLSVRCAAVAGGAAEAPASTGARLSADCVVVGGGISGLCTAQALATRHGVGDVLVTEARARPGGNITTVERPEEGYLWEEGPNSFQPSDPVLTMAVDSGLKDDLVFGDPNAPRFVLWEGKLRPVPSKPADLPFFDLMSIPGKLRAGLGALGIRPPPPGREESVEEFVRRNLGAEVFERLIEPFCSGVYAGDPSKLSMKAAFGKVWRLEETGGSIIGGTIKTIQERSKNPKPPRDARLPKPKGQTVASFRKGLAMLPNAITSSLGSKVKLLWKLTSITKSDDKGYVLEYETPEGVVSVQAKSVIMTIPSYVASNILRPLSSDAADALSRFYYPPVAAVTVSYPKEAIRKECLIDGELQGFGQLHPRSQGVETLGTIYSSSLFPNRAPDGRVLLTNVIGGATNTGIVSKTESELVEAVDRDLRKMLINSTAVDPLVLGVRVWPQAIPQFLVGHLDLLEAAKAALDRGGYDGLFLGGNYVAGVALGRCVEGAYESASQISDFLTKYAYK
modifications: Amino-acid sequence of PPO1 from corn mutant (ZmPPO1 L424T/Y426V)
For the molecule B1, the “growth of ΔhemG transformant on plates containing compound A, compared with ZmPPO1-WT” value in assay [1] is listed as “grew normally without an inhibition”.

B2: ZmPPO1 WT: Amino-acid sequence of PPO1 from wild-type corn (protein)
chain: MVAATATATAMATAASPLLNGTRIPARLRHRGLSVRCAAVAGGAAEAPASTGARLSADCVVVGGGISGLCTAQALATRHGVGDVLVTEARARPGGNITTVERPEEGYLWEEGPNSFQPSDPVLTMAVDSGLKDDLVFGDPNAPRFVLWEGKLRPVPSKPADLPFFDLMSIPGKLRAGLGALGIRPPPPGREESVEEFVRRNLGAEVFERLIEPFCSGVYAGDPSKLSMKAAFGKVWRLEETGGSIIGGTIKTIQERSKNPKPPRDARLPKPKGQTVASFRKGLAMLPNAITSSLGSKVKLLWKLTSITKSDDKGYVLEYETPEGVVSVQAKSVIMTIPSYVASNILRPLSSDAADALSRFYYPPVAAVTVSYPKEAIRKECLIDGELQGFGQLHPRSQGVETLGTIYSSSLFPNRAPDGRVLLLNYIGGATNTGIVSKTESELVEAVDRDLRKMLINSTAVDPLVLGVRVWPQAIPQFLVGHLDLLEAAKAALDRGGYDGLFLGGNYVAGVALGRCVEGAYESASQISDFLTKYAYK
modifications: Amino-acid sequence of PPO1 from wild-type corn (ZmPPO1 WT)
For the molecule B2, in the assay on Arabidopsis thaliana, the “tolerance to compound A compared with wild-type Arabidopsis thaliana” value was “certain level of tolerance”, the “tolerance to flumioxazin compared with wild-type Arabidopsis thaliana” value is “certain level of tolerance” and the “tolerance to saflufenacil compared with wild-type Arabidopsis thaliana” value was “certain level of tolerance”.

B3: GmPPO1 WT: Amino-acid sequence of PPO1 from wild-type soybean (protein)
chain: MVSVFNEILFPPNQTLLRPSLHSPTSFFTSPTRKFPRSRPNPILRCSIAEESTASPPKTRDSAPVDCVVVGGGVSGLCIAQALATKHANANVVVTEARDRVGGNITTMERDGYLWEEGPNSFQPSDPMLTMVVDSGLKDELVLGDPDAPRFVLWNRKLRPVPGKLTDLPFFDLMSIGGKIRAGFGALGIRPPPPGHEESVEEFVRRNLGDEVFERLIEPFCSGVYAGDPSKLSMKAAFGKVWKLEKNGGSIIGGTFKAIQERNGASKPPRDPRLPKPKGQTVGSFRKGLTMLPDAISARLGNKVKLSWKLSSISKLDSGEYSLTYETPEGVVSLQCKTVVLTIPSYVASTLLRPLSAAAADALSKFYYPPVAAVSISYPKEAIRSECLIDGELKGFGQLHPRSQGVETLGTIYSSSLFPNRAPPGRVLLLNYIGGATNTGILSKTDSELVETVDRDLRKILINPNAQDPFVVGVRLWPQAIPQFLVGHLDLLDVAKASIRNTGFEGLFLGGNYVSGVALGRCVEGAYEVAAEVNDFLTNRVYK
modifications: Amino-acid sequence of PPO1 from wild-type soybean (GmPPO1)
With B3, in the assay on Arabidopsis thaliana, the “tolerance to compound A compared with wild-type Arabidopsis thaliana” value is reported as “certain level of tolerance”, the “tolerance to flumioxazin compared with wild-type Arabidopsis thaliana” value is recorded as “certain level of tolerance” and the “tolerance to saflufenacil compared with wild-type Arabidopsis thaliana” value was “certain level of tolerance”.

B4: GmPPO1 L430S/Y432I: Amino-acid sequence of PPO1 from soybean mutant (protein)
chain: MVSVFNEILFPPNQTLLRPSLHSPTSFFTSPTRKFPRSRPNPILRCSIAEESTASPPKTRDSAPVDCVVVGGGVSGLCIAQALATKHANANVVVTEARDRVGGNITTMERDGYLWEEGPNSFQPSDPMLTMVVDSGLKDELVLGDPDAPRFVLWNRKLRPVPGKLTDLPFFDLMSIGGKIRAGFGALGIRPPPPGHEESVEEFVRRNLGDEVFERLIEPFCSGVYAGDPSKLSMKAAFGKVWKLEKNGGSIIGGTFKAIQERNGASKPPRDPRLPKPKGQTVGSFRKGLTMLPDAISARLGNKVKLSWKLSSISKLDSGEYSLTYETPEGVVSLQCKTVVLTIPSYVASTLLRPLSAAAADALSKFYYPPVAAVSISYPKEAIRSECLIDGELKGFGQLHPRSQGVETLGTIYSSSLFPNRAPPGRVLLSNIIGGATNTGILSKTDSELVETVDRDLRKILINPNAQDPFVVGVRLWPQAIPQFLVGHLDLLDVAKASIRNTGFEGLFLGGNYVSGVALGRCVEGAYEVAAEVNDFLTNRVYK
modifications: Amino-acid sequence of PPO1 from soybean mutant (GmPPO1 L430S/Y432I)
Take B4: in the assay with Arabidopsis thaliana, the “tolerance to compound A compared with the overexpressed wild-type PPO1” value is reported as “much higher”, the “tolerance to compound A compared with wild-type Arabidopsis thaliana” value is “certain level of tolerance”, the “tolerance to flumioxazin compared with the overexpressed wild-type PPO1” value was “much higher” and the “tolerance to flumioxazin compared with wild-type Arabidopsis thaliana” value was “certain level of tolerance”. In the assay on Arabidopsis thaliana, the “tolerance to saflufenacil compared with the overexpressed wild-type PPO1” value is recorded as “much higher” and the “tolerance to saflufenacil compared with wild-type Arabidopsis thaliana” value was “certain level of tolerance”.

B5: BnPPO1-C5 WT: Amino-acid sequence of PPO1 wild-type from oilseed rape (protein)
chain: MDLSLLRPQPFLSPFSNPFPRSRPYKPPNLRCSVSGGSVVGGSSTIEGGRGGKTVAADCVIVGGGISGLCIAQALVTKHPDAAKSVMVTEAKDRVGGNIITREEQGFLWEEGPNSFQPSDPMLTMVVDSGLKDDLVLGDPTAPRFVLWNGKLRPVPSKLTDLPFFDLMSIGGKIRAGFGAIGIRPSPPGREESVEEFVRRNLGDEVFERLIEPFCSGVYAGDPAKLSMKAAFGKVWKLEENGGSIIGGAFKAIQARNKAPKTTRDPRLPKPKGQTVGSFRKGLTMLPDAISARLGDKVKVSWKLSSISKLPSGGYSLTYETPEGIVTVQSKSVVMTVPSHVASSLLRPLSDSAAEALSKLYYPPVAAVSISYPKEAIRSECLIDGELKGFGQLHPRTQKVETLGTIYSSSLFPNRAPPGRVLLLNYIGGATNTGILSKSEGELVEAVDRDLRKMLIKPSSTDPLVLGVKVWPQAIPQFLIGHIDLVDAAKASLSSSGHEGLFLGGNYVAGVALGRCVEGAYETATQVNDFMSRYAYK
modifications: Amino-acid sequence of PPO1 wild-type from oilseed rape (BnPPO1-C5)
As to B5, in the assay on Arabidopsis thaliana, the “tolerance to compound A compared with wild-type Arabidopsis thaliana” value is on record as “certain level of tolerance”, the “tolerance to flumioxazin compared with wild-type Arabidopsis thaliana” value is reported as “certain level of tolerance” and the “tolerance to saflufenacil compared with wild-type Arabidopsis thaliana” value was “certain level of tolerance”.

B6: BnPPO1-C5 L424S/Y426I: Amino-acid sequence of PPO1 from oilseed rape mutant (protein)
chain: MDLSLLRPQPFLSPFSNPFPRSRPYKPPNLRCSVSGGSVVGGSSTIEGGRGGKTVAADCVIVGGGISGLCIAQALVTKHPDAAKSVMVTEAKDRVGGNIITREEQGFLWEEGPNSFQPSDPMLTMVVDSGLKDDLVLGDPTAPRFVLWNGKLRPVPSKLTDLPFFDLMSIGGKIRAGFGAIGIRPSPPGREESVEEFVRRNLGDEVFERLIEPFCSGVYAGDPAKLSMKAAFGKVWKLEENGGSIIGGAFKAIQARNKAPKTTRDPRLPKPKGQTVGSFRKGLTMLPDAISARLGDKVKVSWKLSSISKLPSGGYSLTYETPEGIVTVQSKSVVMTVPSHVASSLLRPLSDSAAEALSKLYYPPVAAVSISYPKEAIRSECLIDGELKGFGQLHPRTQKVETLGTIYSSSLFPNRAPPGRVLLSNIIGGATNTGILSKSEGELVEAVDRDLRKMLIKPSSTDPLVLGVKVWPQAIPQFLIGHIDLVDAAKASLSSSGHEGLFLGGNYVAGVALGRCVEGAYETATQVNDFMSRYAYK
modifications: Amino-acid sequence of PPO1 from oilseed rape mutant (BnPPO1-C5 L424S/Y426I)
Take B6: in the assay on Arabidopsis thaliana, the “tolerance to compound A compared with the overexpressed wild-type PPO1” value is on record as “much higher”, the “tolerance to compound A compared with wild-type Arabidopsis thaliana” value is reported as “certain level of tolerance”, the “tolerance to flumioxazin compared with the overexpressed wild-type PPO1” value is on record as “much higher” and the “tolerance to flumioxazin compared with wild-type Arabidopsis thaliana” value is recorded as “certain level of tolerance”. Further, in the assay with Arabidopsis thaliana, the “tolerance to saflufenacil compared with the overexpressed wild-type PPO1” value is on record as “much higher” and the “tolerance to saflufenacil compared with wild-type Arabidopsis thaliana” value is on record as “certain level of tolerance”.
